Test results reported in paper PMC10681739, “High-throughput data and modeling reveal insights into the mechanisms of cooperative DNA-binding by transcription factor proteins”.

B1: Table S3 C row 85 (dsDNA)
DNA 1: CAGTCTGGCCCTCCACTTCCTGTTTTTATAAATGAA
DNA 2: TTCATTTATAAAAACAGGAAGTGGAGGGCCAGACTG
B2: Table S3 C row 18 (dsDNA)
DNA 1: GCTGTGATTGCCTCACTTCCTGTGTCATGTGACGCT
DNA 2: AGCGTCACATGACACAGGAAGTGAGGCAATCACAGC
B3: Table S3 C row 64 (dsDNA)
DNA 1: CTCCATCACTGTCGGAGGAAGTGGCATGCAGAGTGG
DNA 2: CCACTCTGCATGCCACTTCCTCCGACAGTGATGGAG
B4: Table S3 C row 19 (dsDNA)
DNA 1: TCCAGACCTCCCCGTCTTCCGGCTGCCCTGAACGTC
DNA 2: GACGTTCAGGGCAGCCGGAAGACGGGGAGGTCTGGA
B5: Table S3 C row 80 (dsDNA)
DNA 1: CAAAAGGGCTGCCAGTTTCCGCCCCTTCTAGCGAGC
DNA 2: GCTCGCTAGAAGGGGCGGAAACTGGCAGCCCTTTTG
B6: Table S3 C row 139 (dsDNA)
DNA 1: TAAATGGAAAGCATACATCCTGTTTTTTTGCTGTAG
DNA 2: CTACAGCAAAAAAACAGGATGTATGCTTTCCATTTA
B7: Table S3 C row 95 (dsDNA)
DNA 1: CGCAGGGTCACGTGACATCCTGCCTCGCCCCGCCCA
DNA 2: TGGGCGGGGCGAGGCAGGATGTCACGTGACCCTGCG
B8: Table S3 C row 55 (dsDNA)
DNA 1: GGGTTCATGTTTAGCAGGAAGTTGAAATGACTCACC
DNA 2: GGTGAGTCATTTCAACTTCCTGCTAAACATGAACCC
B9: Table S3 C row 30 (dsDNA)
DNA 1: ACCGACCTGCCTCGCCGGAACTCCTCGCGCATCGCC
DNA 2: GGCGATGCGCGAGGAGTTCCGGCGAGGCAGGTCGGT
B10: Table S3 C row 45 (dsDNA)
DNA 1: CCGCTGGGGCAGGAGTTTCCGGCGGACTCGGCTAGG
DNA 2: CCTAGCCGAGTCCGCCGGAAACTCCTGCCCCAGCGG
B11: Table S3 C row 109 (dsDNA)
DNA 1: GCAGCACGCAGCAACCGGAAGTCAATGGACGAAGAC
DNA 2: GTCTTCGTCCATTGACTTCCGGTTGCTGCGTGCTGC
B12: Table S3 C row 51 (dsDNA)
DNA 1: CACAGAGACACCAACAGGAAGAGACCAGAGAGCCAA
DNA 2: TTGGCTCTCTGGTCTCTTCCTGTTGGTGTCTCTGTG
B13: Table S3 C row 63 (dsDNA)
DNA 1: GCACTGAGGCTGACCCGGAAGTTTAAATTACGCTCC
DNA 2: GGAGCGTAATTTAAACTTCCGGGTCAGCCTCAGTGC
B14: Table S3 C row 59 (dsDNA)
DNA 1: TCTTACGGGCGGGGCCGGAAGAGGGAGTCGCGCTGC
DNA 2: GCAGCGCGACTCCCTCTTCCGGCCCCGCCCGTAAGA
B15: Table S3 C row 196 (dsDNA)
DNA 1: GGGGTTCAGTGCCTCTTTCCGTTGGAGAGAACCTCT
DNA 2: AGAGGTTCTCTCCAACGGAAAGAGGCACTGAACCCC
B16: Table S3 C row 131 (dsDNA)
DNA 1: AGTTGGTAGCGCCAACGGAAGCCCATGCCAAACTTG
DNA 2: CAAGTTTGGCATGGGCTTCCGTTGGCGCTACCAACT
B17: Table S3 C row 155 (dsDNA)
DNA 1: TCCAGGCACTATTTTCGGAAGCAGAGACACAGTGCC
DNA 2: GGCACTGTGTCTCTGCTTCCGAAAATAGTGCCTGGA
B18: Table S3 C row 78 (dsDNA)
DNA 1: ATTCCAATGGCAGGCAGGAAATCTTGTAGTAGGTGA
DNA 2: TCACCTACTACAAGATTTCCTGCCTGCCATTGGAAT
B19: Table S3 C row 7 (dsDNA)
DNA 1: ACCCCGACGCAGCCTGGGAAGTGTAGTCCTCTCTGC
DNA 2: GCAGAGAGGACTACACTTCCCAGGCTGCGTCGGGGT
B20: Table S3 C row 34 (dsDNA)
DNA 1: TTACGGCAAGCCTCACTTCCGGTCTGAACATTACGG
DNA 2: CCGTAATGTTCAGACCGGAAGTGAGGCTTGCCGTAA
B21: Table S3 C row 84 (dsDNA)
DNA 1: GCTTCTGGGAGAAGCCGGAAGAGACCTGACCCTGAA
DNA 2: TTCAGGGTCAGGTCTCTTCCGGCTTCTCCCAGAAGC
B22: Table S3 C row 190 (dsDNA)
DNA 1: CGCTCGTAAGTGCTCCGGATGGAATCTGGTGCAGGG
DNA 2: CCCTGCACCAGATTCCATCCGGAGCACTTACGAGCG
B23: Table S3 C row 152 (dsDNA)
DNA 1: TTTCCCCGACCCCGCCGGAAGACCAGGCCGGCGCGG
DNA 2: CCGCGCCGGCCTGGTCTTCCGGCGGGGTCGGGGAAA
B24: Table S3 C row 159 (dsDNA)
DNA 1: GTAAATACACTCATGTTTCCGCTCTCAGCCGTCAGT
DNA 2: ACTGACGGCTGAGAGCGGAAACATGAGTGTATTTAC
B25: Table S3 C row 28 (dsDNA)
DNA 1: GTTCCTAGTCCGCTCCGGAAATGCAACTGCGTACGG
DNA 2: CCGTACGCAGTTGCATTTCCGGAGCGGACTAGGAAC
B26: Table S3 C row 92 (dsDNA)
DNA 1: TCCCTAGTTTCTGCCCGGAAGATGGAGCCGCCATCT
DNA 2: AGATGGCGGCTCCATCTTCCGGGCAGAAACTAGGGA
B27: Table S3 C row 17 (dsDNA)
DNA 1: CGCGGGTCATGTGACCGGAAGGGCTCCTCACGGACG
DNA 2: CGTCCGTGAGGAGCCCTTCCGGTCACATGACCCGCG
B28: Table S3 C row 199 (dsDNA)
DNA 1: TATCTGAGGAGTGGCAGGAAGTCTGGGGTGACTTTT
DNA 2: AAAAGTCACCCCAGACTTCCTGCCACTCCTCAGATA
B29: Table S3 C row 56 (dsDNA)
DNA 1: CGCTCAGAGCTACGGCGGAAATGCCGCTCTTTTAAC
DNA 2: GTTAAAAGAGCGGCATTTCCGCCGTAGCTCTGAGCG
B30: Table S3 C row 99 (dsDNA)
DNA 1: CGCTCCAGGGCCTCCCGGATGGCCTAGTCGGGCCCG
DNA 2: CGGGCCCGACTAGGCCATCCGGGAGGCCCTGGAGCG
B31: Table S3 C row 40 (dsDNA)
DNA 1: GCACCTGTATTGCCGTTTCCGGTTCGCCTTCGGAGC
DNA 2: GCTCCGAAGGCGAACCGGAAACGGCAATACAGGTGC
B32: Table S3 C row 134 (dsDNA)
DNA 1: GGGCAGAAGCACACAAGGAAGTGTTTCTGGGACAGA
DNA 2: TCTGTCCCAGAAACACTTCCTTGTGTGCTTCTGCCC
B33: Table S3 C row 67 (dsDNA)
DNA 1: AAAAAAAAAAAAAAAGTTCCGGCCGGGCTGCGCCTC
DNA 2: GAGGCGCAGCCCGGCCGGAACTTTTTTTTTTTTTTT
B34: Table S3 C row 38 (dsDNA)
DNA 1: AGTGAAACATCAGAGCTTCCTGTTACATCACTCTGA
DNA 2: TCAGAGTGATGTAACAGGAAGCTCTGATGTTTCACT
B35: Table S3 C row 16 (dsDNA)
DNA 1: GCTAGATGAAGCCCCTTTCCTGTTGCTGCCTACATT
DNA 2: AATGTAGGCAGCAACAGGAAAGGGGCTTCATCTAGC
B36: Table S3 C row 91 (dsDNA)
DNA 1: CACATACTACTACAACTTCCGGCAGGCTCCGCGCCC
DNA 2: GGGCGCGGAGCCTGCCGGAAGTTGTAGTAGTATGTG
B37: Table S3 C row 171 (dsDNA)
DNA 1: AGGAGACAAGCGCCACTTCCGGCAGCGAAGTCACTT
DNA 2: AAGTGACTTCGCTGCCGGAAGTGGCGCTTGTCTCCT
B38: Table S3 C row 97 (dsDNA)
DNA 1: CACCTGCTACTCAAAGTTCCGCCTCTCTTCAGCGAG
DNA 2: CTCGCTGAAGAGAGGCGGAACTTTGAGTAGCAGGTG
B39: Table S3 C row 195 (dsDNA)
DNA 1: TCGCGCTGGACGAAGCGGAAGAAGATGGCGCTCACC
DNA 2: GGTGAGCGCCATCTTCTTCCGCTTCGTCCAGCGCGA
B40: Table S3 C row 42 (dsDNA)
DNA 1: CTTTGGCAGCAAGAACATCCGTTCTCTGTTCTTTGC
DNA 2: GCAAAGAACAGAGAACGGATGTTCTTGCTGCCAAAG
B41: Table S3 C row 4 (dsDNA)
DNA 1: CTCTCAACCCAGCCGCTTCCTGGTTGTTCGTCGCAA
DNA 2: TTGCGACGAACAACCAGGAAGCGGCTGGGTTGAGAG
B42: Table S3 C row 168 (dsDNA)
DNA 1: CAGAAGTCCCGACCCCATCCTGCCACGCCTCAGCGT
DNA 2: ACGCTGAGGCGTGGCAGGATGGGGTCGGGACTTCTG
B43: Table S3 C row 169 (dsDNA)
DNA 1: CGCGGGCCCGGCCAGCGGAAGCCCCTGCGCCCGCGC
DNA 2: GCGCGGGCGCAGGGGCTTCCGCTGGCCGGGCCCGCG
B44: Table S3 C row 14 (dsDNA)
DNA 1: TCCTGCCGACGTGTTCTTCCGGTGGCGGAGCGGCGG
DNA 2: CCGCCGCTCCGCCACCGGAAGAACACGTCGGCAGGA
B45: Table S3 C row 2 (dsDNA)
DNA 1: TGGACCTAGGGCAGACGGAAGTTTTGGGAGGGCCGG
DNA 2: CCGGCCCTCCCAAAACTTCCGTCTGCCCTAGGTCCA

Biological target: RUNX1 (Homo sapiens, UniProt Q01196)
Experiment: gcPBM; 2 nM RUNX1
Details: tags: N-terminal GST (pDEST15), kept (PMC6008103); label: surface-attached array probe

Chain of RUNX1 (Q01196 whole entry): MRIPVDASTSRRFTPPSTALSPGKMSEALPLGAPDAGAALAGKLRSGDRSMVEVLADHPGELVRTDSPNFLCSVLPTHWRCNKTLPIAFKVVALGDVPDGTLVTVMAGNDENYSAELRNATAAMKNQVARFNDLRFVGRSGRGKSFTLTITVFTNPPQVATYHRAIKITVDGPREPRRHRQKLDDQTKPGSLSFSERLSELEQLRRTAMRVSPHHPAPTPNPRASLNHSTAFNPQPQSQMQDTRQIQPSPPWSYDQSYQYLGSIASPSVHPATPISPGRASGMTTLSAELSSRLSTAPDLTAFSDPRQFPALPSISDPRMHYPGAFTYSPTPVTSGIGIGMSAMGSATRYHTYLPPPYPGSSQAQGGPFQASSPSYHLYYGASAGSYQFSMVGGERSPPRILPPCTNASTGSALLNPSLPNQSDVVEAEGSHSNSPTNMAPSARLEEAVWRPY

| Binder | binding signal |
| --- | --- |
| B1 | 810 PBM fluorescence, median of replicate spots |
| B2 | 805 PBM fluorescence, median of replicate spots |
| B3 | 818 PBM fluorescence, median of replicate spots |
| B4 | 812 PBM fluorescence, median of replicate spots |
| B5 | 794 PBM fluorescence, median of replicate spots |
| B6 | 802 PBM fluorescence, median of replicate spots |
| B7 | 783 PBM fluorescence, median of replicate spots |
| B8 | 803 PBM fluorescence, median of replicate spots |
| B9 | 816 PBM fluorescence, median of replicate spots |
| B10 | 802 PBM fluorescence, median of replicate spots |
| B11 | 792 PBM fluorescence, median of replicate spots |
| B12 | 807 PBM fluorescence, median of replicate spots |
| B13 | 812 PBM fluorescence, median of replicate spots |
| B14 | 793 PBM fluorescence, median of replicate spots |
| B15 | 810 PBM fluorescence, median of replicate spots |
| B16 | 778 PBM fluorescence, median of replicate spots |
| B17 | 791 PBM fluorescence, median of replicate spots |
| B18 | 802 PBM fluorescence, median of replicate spots |
| B19 | 822 PBM fluorescence, median of replicate spots |
| B20 | 808 PBM fluorescence, median of replicate spots |
| B21 | 782 PBM fluorescence, median of replicate spots |
| B22 | 780 PBM fluorescence, median of replicate spots |
| B23 | 787 PBM fluorescence, median of replicate spots |

| Binder | binding signal |
| --- | --- |
| B24 | 801 PBM fluorescence, median of replicate spots |
| B25 | 793 PBM fluorescence, median of replicate spots |
| B26 | 788 PBM fluorescence, median of replicate spots |
| B27 | 798 PBM fluorescence, median of replicate spots |
| B28 | 815 PBM fluorescence, median of replicate spots |
| B29 | 786 PBM fluorescence, median of replicate spots |
| B30 | 786 PBM fluorescence, median of replicate spots |
| B31 | 799 PBM fluorescence, median of replicate spots |
| B32 | 813 PBM fluorescence, median of replicate spots |
| B33 | 810 PBM fluorescence, median of replicate spots |
| B34 | 789 PBM fluorescence, median of replicate spots |
| B35 | 818 PBM fluorescence, median of replicate spots |
| B36 | 795 PBM fluorescence, median of replicate spots |
| B37 | 814 PBM fluorescence, median of replicate spots |
| B38 | 779 PBM fluorescence, median of replicate spots |
| B39 | 794 PBM fluorescence, median of replicate spots |
| B40 | 821 PBM fluorescence, median of replicate spots |
| B41 | 782 PBM fluorescence, median of replicate spots |
| B42 | 810 PBM fluorescence, median of replicate spots |
| B43 | 779 PBM fluorescence, median of replicate spots |
| B44 | 791 PBM fluorescence, median of replicate spots |
| B45 | 810 PBM fluorescence, median of replicate spots |
